# According to patent US20260242485A1:
# Assays:
# [1] = molecular target: human CD16B-NA1 expressed on CHO-K1 cells (human) (UniProt O75015); assay: flow cytometry, CHO-K1-hCD16B-NA1 cells, geometric mean
# [2] = molecular target: human CD32B expressed on CHO-K1 cells (human) (UniProt P31994); assay: flow cytometry, CHO-K1-hCD32B cells, geometric mean
# Chain of human CD32B expressed on CHO-K1 cells (human) (P31994 43-310): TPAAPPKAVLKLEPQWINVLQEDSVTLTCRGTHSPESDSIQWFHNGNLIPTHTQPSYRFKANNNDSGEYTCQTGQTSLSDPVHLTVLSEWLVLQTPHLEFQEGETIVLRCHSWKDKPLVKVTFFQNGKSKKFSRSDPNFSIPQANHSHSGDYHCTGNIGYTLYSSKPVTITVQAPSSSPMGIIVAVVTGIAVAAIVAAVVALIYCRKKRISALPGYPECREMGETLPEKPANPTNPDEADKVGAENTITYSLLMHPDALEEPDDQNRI
# Chain of human CD16B-NA1 expressed on CHO-K1 cells (human) (O75015 other isoform, or with tags, fused parts or gaps): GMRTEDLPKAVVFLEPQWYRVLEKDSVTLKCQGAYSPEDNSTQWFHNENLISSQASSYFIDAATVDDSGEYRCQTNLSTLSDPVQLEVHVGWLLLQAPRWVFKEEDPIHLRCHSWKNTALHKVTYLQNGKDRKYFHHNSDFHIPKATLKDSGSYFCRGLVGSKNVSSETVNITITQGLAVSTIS
EC50 (read off the curve) [1] [nM],EC50 (read off the curve) [2] [nM],Substance
0.1 to 1,,3G8-mIgG2aLALAPG (antibody)
0.1,,Positive control (3G8) (antibody)
,0.1,Positive control (6G11) (antibody)
